Test results taken from PMC11931385, “Structural and functional analysis of cancer-associated missense variants in the retinoblastoma protein pocket domain” (The Journal of Biological Chemistry, 2025).
Positions count from the first letter of the chain named. Names and notes keep the numbering of the source. No end group written: not given here. TMR = tetramethyl rhodamine dye

T1: Rb^P L550I (human, UniProt P06400 380-788, L550I)
T1 construct: also called variant 27
T1 sequence (looked up): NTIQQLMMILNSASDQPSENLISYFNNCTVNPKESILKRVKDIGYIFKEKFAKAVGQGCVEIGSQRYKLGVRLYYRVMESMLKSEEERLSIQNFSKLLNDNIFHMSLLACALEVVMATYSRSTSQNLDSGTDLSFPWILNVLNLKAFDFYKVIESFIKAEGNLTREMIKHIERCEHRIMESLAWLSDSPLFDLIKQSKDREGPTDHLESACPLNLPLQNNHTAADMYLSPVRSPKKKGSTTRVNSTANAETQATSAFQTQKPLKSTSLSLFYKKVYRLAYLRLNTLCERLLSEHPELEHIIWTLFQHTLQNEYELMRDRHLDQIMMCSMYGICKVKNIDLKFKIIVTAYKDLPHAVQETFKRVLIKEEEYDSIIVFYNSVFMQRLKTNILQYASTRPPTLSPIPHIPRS

T2: Rb^P M695I (human, UniProt P06400 380-788, M695I)
T2 construct: also called variant 61
T2 sequence (looked up): T1 sequence (looked up) with I171L, M316I

T3: Rb^P S463L (human, UniProt P06400 380-788, S463L)
T3 construct: also called variant 10
T3 sequence (looked up): T1 sequence (looked up) with S84L, I171L

T4: Rb^P R621C (human, UniProt P06400 380-788, R621C)
T4 construct: also called variant 41
T4 sequence (looked up): T1 sequence (looked up) with I171L, R242C

T5: Rb^P Y606C (human, UniProt P06400 380-788, Y606C)
T5 construct: also called variant 37
T5 sequence (looked up): T1 sequence (looked up) with I171L, Y227C

B1: TMR-E2F1^TD, peptide of the E2F1 transactivation domain (peptide)
peptide: {TMR}-GEGIRDLFDCDFGDLTPLD
notes: also called E2F^TD; source: synthetic peptide, bought: GenScript
B2: TMR-E7^LxCxE, LxCxE peptide of the E7 oncoprotein from HPV (peptide)
peptide: DLYCYEQLN
modifications: also: TMR label, position not given here
notes: source: synthetic peptide, bought: GenScript

What was measured:
Assay in all cases: fluorescence polarisation; 37 °C, after the 25 °C reading ramped over 7 min to 37 °C and 2 min incubation; unlabeled Rb^P against 1.5 nM TMR-E2F1^TD or 7.5 nM TMR-E7^LxCxE; 25 mM Tris pH 8.0, 200 mM NaCl, 1 mM DTT, 0.1% Tween-20; apparent Kd
Conditions in all cases: both partners purified
[1] = molecular target: T1, Rb^P L550I
[2] = molecular target: T2, Rb^P M695I
[3] = molecular target: T3, Rb^P S463L
[4] = molecular target: T4, Rb^P R621C
[5] = molecular target: T5, Rb^P Y606C

| Binder | Kd [1] | Kd [2] | Kd [3] | Kd [4] | Kd [5] |
| --- | --- | --- | --- | --- | --- |
| B1 | 0.08 µM | 0.165 µM | 0.041 µM | 0.043 µM | 0.027 µM |
| B2 | 0.007 µM | 0.093 µM | 0.017 µM | 0.03 µM | 0.023 µM |
